Assay results reported in the supplement of paper PMC12338614.
± gives the uncertainty stated by the source.

B1: library; numbered along this chain (parent)
chain: MEVVDPQQLGMFTEGELMSVGMDTFIHRIDSTEVIYQPRRKRAKLIGKYLMGDLLGEGSYGKVKEVLDSETLCRRAVKILKKKKLRRIPNGEANVKKEIQLLRRLRHKNVIQLVDVLYNEEKQKMYMVMEYCVCGMQEMLDSVPEKRFPVCQAHGYFCQLIDGLEYLHSQGIVHKDIKPGNLLLTTGGTLKISDLGVAEALHPFAADDTCRTSQGSPAFQPPEIANGLDTFSGFKVDIWSAGVTLYNITTGLYPFEGDNIYKLFENIGKGSYAIPGDCGPPLSDLLKGMLEYEPAKRFSIRQIRQHSWFRKKHPPAEAPVPIPPSPDTKDRWRSMTVVPYLEDLHGADEDEDLFDIEDDIIYTQDFTVPGQVPEEEASHNGQRRGLPKAVCMNGTEAAQLSTKSRAEGRAPNPARKACSASSKIRRLSACKQQ

Variants of: B1
Experiment: STK11 functional score (HeLa growth suppression), rescaled enrichment; synonymous median = 1, nonsense median = 0 (normalised score)
Conditions: with HeLa; variant type: missense
Outline: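 The functional score takes the post/pre-selection log ratio, corrects it to wild type, rescales it to synonymous and nonsense medians, and merges it over codons and replicate transfections, with error from bootstrapping. Counts came from tiled gDNA amplicons sequenced on NextSeq (~2 million reads per tile). The libraries were POPCode codon-randomised, codon-optimised STK11 integrated by Bxb1 at an AAVS1 landing pad in HeLa, three regions with three transfections each.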

Variant	STK11 functional score
MEVVDPQQLGMFTEGELMSVGMDTFIHRIDSTEVIYQPRRKRAKLIGKYLMGDLLGEGSYQKVKEVLDSETLCRRAVKILKKKKLRRIPNGEANVKKEIQLLRRLRHKNVIQLVDVLYNEEKQKMYMVMEYCVCGMQEMLDSVPEKRFPVCQAHGYFCQLIDGLEYLHSQGIVHKDIKPGNLLLTTGGTLKISDLGVAEALHPFAADDTCRTSQGSPAFQPPEIANGLDTFSGFKVDIWSAGVTLYNITTGLYPFEGDNIYKLFENIGKGSYAIPGDCGPPLSDLLKGMLEYEPAKRFSIRQIRQHSWFRKKHPPAEAPVPIPPSPDTKDRWRSMTVVPYLEDLHGADEDEDLFDIEDDIIYTQDFTVPGQVPEEEASHNGQRRGLPKAVCMNGTEAAQLSTKSRAEGRAPNPARKACSASSKIRRLSACKQQ [G61Q]	0.913 ± 0.41
MEVVDPQQLGMFTEGELMSVGMDTFIHRIDSTEVIYQPRRKRAKLIGKYLMGDLLGEGSYGKVKEVLDSETLCRRAVKILKKKKLRRIPNGEANVKKEIQLLRRLRHKNVIQLVDVLYNEEKQKMYMVMEYCVCGMQEMLDSVPEKRFPVCQAHGYFCQLIDGLEYLHSQGIVHKDIKPGNLLLTTGGTLKISDLGVAEALHPFAADDTCRTSQGSPAFQPPEIANGLDTFSGFKVDIWSAGVTLYNITTGLYPFEGDNIYKLFENIGKGSYAIPGDCGPPLSDLLKGMLEYEPAKRFSIRQIRQHSWFRKKHPPAEAPVPIPPSPDTKDRWRSMTVVPYLEDLHGADEDEDLFDIEDDIDYTQDFTVPGQVPEEEASHNGQRRGLPKAVCMNGTEAAQLSTKSRAEGRAPNPARKACSASSKIRRLSACKQQ [I361D]	1.5 ± 0.17
MEVVDPQQLGMFTEGELMSVGMDTFIHRIDSTEVIYQPRRKRAKLIGKYLMGDLLGEGSYGKVKEVLDSETLCRRAVKILKKKKLRRIPNGEANVKKEIQLLRRLRHKNVIQLVDVLYNEEKQKMYMVMEYCVCGMQEMLDSVPEKRFPVCQAHGYFCQLIDGLEYLHSQGIVHKDIKPGNLLLTTGGTLKISDLGVAEALHPFAADDTCRTSQGSPAFQPPEIANGLDTFSGFKVDIWSAGVTLYIITTGLYPFEGDNIYKLFENIGKGSYAIPGDCGPPLSDLLKGMLEYEPAKRFSIRQIRQHSWFRKKHPPAEAPVPIPPSPDTKDRWRSMTVVPYLEDLHGADEDEDLFDIEDDIIYTQDFTVPGQVPEEEASHNGQRRGLPKAVCMNGTEAAQLSTKSRAEGRAPNPARKACSASSKIRRLSACKQQ [N247I]	1.16 ± 0.15
MEVVDPQQLGMFTEGELMSVGMDTFIHRIDSTEVIYQPRRKRAKLIGKYLMGDLLGEGSYGKVKEVLDSETLCRRAVKILKKKKLRRIPNGEANVKKEIQLLRRLRHKNVIQLVDVLYNEEKQKMYMVMEYCVCGMQEMLDSVPEKRTPVCQAHGYFCQLIDGLEYLHSQGIVHKDIKPGNLLLTTGGTLKISDLGVAEALHPFAADDTCRTSQGSPAFQPPEIANGLDTFSGFKVDIWSAGVTLYNITTGLYPFEGDNIYKLFENIGKGSYAIPGDCGPPLSDLLKGMLEYEPAKRFSIRQIRQHSWFRKKHPPAEAPVPIPPSPDTKDRWRSMTVVPYLEDLHGADEDEDLFDIEDDIIYTQDFTVPGQVPEEEASHNGQRRGLPKAVCMNGTEAAQLSTKSRAEGRAPNPARKACSASSKIRRLSACKQQ [F148T]	-0.101 ± 0.1
MEVVDPQQLGMFTEGELMSVGMDTFIHRIDSTEVIYQPRRKRAKLIGKYLMGDLLGEGSYGKVKEVLDSETLCRRAVKILKKKKLRRIPNGEANVKKEIQLLRRLRHKNVIQLVDVLYNEEKQKMYMVMEYCVCGMQEMLDSVPEKRFPVCQAHGYFCQLIDGLEYLHSQGIVHKDIKPGNLLLTTGGTLKISDLGVAEALHPFAADDTCRTSQGSPAFQPPEIANGLDTFPGFKVDIWSAGVTLYNITTGLYPFEGDNIYKLFENIGKGSYAIPGDCGPPLSDLLKGMLEYEPAKRFSIRQIRQHSWFRKKHPPAEAPVPIPPSPDTKDRWRSMTVVPYLEDLHGADEDEDLFDIEDDIIYTQDFTVPGQVPEEEASHNGQRRGLPKAVCMNGTEAAQLSTKSRAEGRAPNPARKACSASSKIRRLSACKQQ [S232P]	0.971 ± 0.44
MEVVDPQQLGMFTEGELMSVGMDTFIHRIDSTEVIYQPRRKRAKLIGKYLMGDLLGEGSYGKVKEVLDSETLCRRAVKILKKKKLRRIPNGEANVKKEIQLLRRLRHKNVIQLVDVLYNEEKQKMYMVMEYCVCGMQEMLDSVPEKRFPVCQAHGYFCQLIDGLEYLHSQGIVHKDIKPGNLLLTTGGTLKISDLGVAEALHPFAADDTCRTSQGSPAFQPPEIANGLDTFSGFKVDIWSAGVTLYNITTGLYPFEGDAIYKLFENIGKGSYAIPGDCGPPLSDLLKGMLEYEPAKRFSIRQIRQHSWFRKKHPPAEAPVPIPPSPDTKDRWRSMTVVPYLEDLHGADEDEDLFDIEDDIIYTQDFTVPGQVPEEEASHNGQRRGLPKAVCMNGTEAAQLSTKSRAEGRAPNPARKACSASSKIRRLSACKQQ [N259A]	-0.00474 ± 0.089
MEVVDPQQLGMFTEGELMSVGMDTFIHRIDSTEVIYQPRRKRAKLIGKYLMGDLLGEGSYGKVKEVLDSETLCRRAVKILKKKKLRRIPNGEANVKKEIQLLRRLRHKNVIQLVDVLYNEEKQKMYMVMEYCVCGMQEMLDSVPEKRFPVCQAHGYFCQLIDGLEYLHSQGIVHKDIKPGKLLLTTGGTLKISDLGVAEALHPFAADDTCRTSQGSPAFQPPEIANGLDTFSGFKVDIWSAGVTLYNITTGLYPFEGDNIYKLFENIGKGSYAIPGDCGPPLSDLLKGMLEYEPAKRFSIRQIRQHSWFRKKHPPAEAPVPIPPSPDTKDRWRSMTVVPYLEDLHGADEDEDLFDIEDDIIYTQDFTVPGQVPEEEASHNGQRRGLPKAVCMNGTEAAQLSTKSRAEGRAPNPARKACSASSKIRRLSACKQQ [N181K]	-0.18 ± 0.14
MEVVDPQQLGMFTEGELMSVGMDTFIHRIDSTEVIYQPRRKRAKLIGKYLMGDLLGEGSYGKVKEVLDSETLCRRAVKILKKKKLRRIPNGEANVKKEIQLLRRLRHKNVIQLVDVLYNEEKQKMYMVMEYCVCGMQEMLDSVPEKRFPVCQAHGYFCQLIDGLEYLHSQGIVHKDIKPGNLLMTTGGTLKISDLGVAEALHPFAADDTCRTSQGSPAFQPPEIANGLDTFSGFKVDIWSAGVTLYNITTGLYPFEGDNIYKLFENIGKGSYAIPGDCGPPLSDLLKGMLEYEPAKRFSIRQIRQHSWFRKKHPPAEAPVPIPPSPDTKDRWRSMTVVPYLEDLHGADEDEDLFDIEDDIIYTQDFTVPGQVPEEEASHNGQRRGLPKAVCMNGTEAAQLSTKSRAEGRAPNPARKACSASSKIRRLSACKQQ [L184M]	0.45 ± 0.16
MEVVDPQQLGMFTEGELMSVGMDTFIHRIDSTEVIYQPRRKRAKLIGKYLMGDLLGEGSYGKVKEVLDSETLCRRAVKILKKKKLRRIPNGEANVKKEIQLLRRLRHKNVIQLVDVLYNEEKQKMYMVMEYCVCGMQEMLDSVPEKRFPVCQAHGYFCQLIDGLEYLHSQGIVHKDIKPGNLLLTTGGTLKISDLGVAEALHPFAADDTCRTSQGSPAFQPPEIANGLDTFSGFKVDIWSAGVTLYNITTGLYPFEGDNIYKLFENIGKGSYAIPGDCGPPLSDLLKGMLEYEPAKRFSIRQIRQHSWFRKKHPPAEAPVPIPPSPDTKDRWRSMTVVPYLEDLHGADEDEDLFDIEDSIIYTQDFTVPGQVPEEEASHNGQRRGLPKAVCMNGTEAAQLSTKSRAEGRAPNPARKACSASSKIRRLSACKQQ [D359S]	1.15 ± 0.22
MEVVDPQQLGMFTEGELMSVGMDTFIHRIDSTEVIYQPRRKRAKLIGKYLMGDLLGEGSYGKVKEVLDSETLCRRAVKILKKKKLRRIPNGEANVKKEIQLLRRLRHKNVIQLVDVLYNEEKQKMYMVMEYCVCGMQEMLDSVPEKRFPVCQAHGYFCQLIDGLEYLHSQGIVHKDIKPGNLLLTTGGTLKISDLGVAEALHPFAADDTCRTSQGSPAFQPPEIANGLDTFSGFKVDIWSAGVTLYNITTGLYPFEGDNIYKLFENIGKGSYAIPGDCGPPLSDLLKGMLEYEPAKRFSIRQIRQHSWFRKKHPPAEAPVPIPPSPDDKDRWRSMTVVPYLEDLHGADEDEDLFDIEDDIIYTQDFTVPGQVPEEEASHNGQRRGLPKAVCMNGTEAAQLSTKSRAEGRAPNPARKACSASSKIRRLSACKQQ [T328D]	1.5 ± 0.26
MEVVDPQQLGMFTEGELMSVGMDTFIHRIDSTEVIYQPRRKRAKLIGKYLMGDLLGEGSYGKVKEVLDSETLCRRAVKILKKKKLRRIPNGEANVKKEIQLLRRLRHKNVIQLVDVLYNEEKQKMYMVMEYCVCGMQEMLDSVPEKRFPVCQAHGYFCQLIDGLEYLHSQGIVHKDIKPGNLLLTTGGTLKISDLGVAEALHPFAADDTCRTSQGSPAFQPPEIANGLDTFSGFKVDIWSAGVTLYNITTGLYPFEGDNIYKLFENIGKGSYAIPGDCGPPLSDLLKGMLEYEPAKRFSIRQIRQHSWFRKKHPPAEAPVPIPPSPDTKDRWRSMTVVPYLEDLHGADEDEDLFDIEDDIIYTQDFTVPGQVPEEEASHNGQRRGLPKAVCMNGTEAAQLSTKSRAEGRVPNPARKACSASSKIRRLSACKQQ [A410V]	1.32 ± 0.21
MEVVDPQQLGMFTEGELMSVGMDTFIHRIDSTEVIYQPRRKRAKLIGKYLMGDLLGEGSYGKVKEVLDSETLCRRAVKILKKKKLRRIPNGEANVKKEIQLLRRLRHKNVIQLVDVLYNEEKQKMYMVMEYCVCGMQEMLDSVPEKRFPVCQAHGYFCQLIDGLEYLHSQGIVHKDIKPGNLLLTTGGTFKISDLGVAEALHPFAADDTCRTSQGSPAFQPPEIANGLDTFSGFKVDIWSAGVTLYNITTGLYPFEGDNIYKLFENIGKGSYAIPGDCGPPLSDLLKGMLEYEPAKRFSIRQIRQHSWFRKKHPPAEAPVPIPPSPDTKDRWRSMTVVPYLEDLHGADEDEDLFDIEDDIIYTQDFTVPGQVPEEEASHNGQRRGLPKAVCMNGTEAAQLSTKSRAEGRAPNPARKACSASSKIRRLSACKQQ [L190F]	0.343 ± 0.17
MEVVDPQQLGMFTEGELMSVGMDTFIHRIDSTEVIYQPRRKRAKLIGKYLMGDLLGEGSYGKVKEVLDSETLCRRAVKILKKKKLRRIPNGEANVKKEIQLLRRLRHKNVIQLVDVLYNEEKQKMYMVMEYCVCGMQEMLDSVPEKRFPVCQAHGYFCQLIDGLEYLHSQGIVHKDIKPGNLLLTTGGTLKISDLGVAEALHPFAADDTCRTSQGSPAFQPPEIANGLDTFSGFKVDIWSAGVTLYNITTGLYPFEGDNIYKLFENIGKGSYAIPGDCGPPLSDLLKGMLEYEPAKRFSIRQIRQHSWFRKKHPPAEAPVPIPPSPDTKDRWRSMTVVPYLEDLHGADEDQDLFDIEDDIIYTQDFTVPGQVPEEEASHNGQRRGLPKAVCMNGTEAAQLSTKSRAEGRAPNPARKACSASSKIRRLSACKQQ [E351Q]	1.28 ± 0.6
MEVVDPQQLGMFTEGELMSVGMDTFIHRIDSTEVIYQPRRKRAKLIGKYLMGDLLGEGSYGKVKEVLDSETLCRRAVKILKKKKLRRIPNGEANVKKEIQLLRRLRHKNVIQLVDVLYNEEKQKMYMVMEYCVLGMQEMLDSVPEKRFPVCQAHGYFCQLIDGLEYLHSQGIVHKDIKPGNLLLTTGGTLKISDLGVAEALHPFAADDTCRTSQGSPAFQPPEIANGLDTFSGFKVDIWSAGVTLYNITTGLYPFEGDNIYKLFENIGKGSYAIPGDCGPPLSDLLKGMLEYEPAKRFSIRQIRQHSWFRKKHPPAEAPVPIPPSPDTKDRWRSMTVVPYLEDLHGADEDEDLFDIEDDIIYTQDFTVPGQVPEEEASHNGQRRGLPKAVCMNGTEAAQLSTKSRAEGRAPNPARKACSASSKIRRLSACKQQ [C134L]	0.479 ± 0.083
